Test [1] has as its target T1, human thymic stromal lymphopoietin (TSLP) (human, UniProt Q969D9 29-159). The test can be described thus: cell-based or functional assay.
Test [2] addresses T2, cynomolgus monkey TSLP (cynomolgus monkey).
T2 chain: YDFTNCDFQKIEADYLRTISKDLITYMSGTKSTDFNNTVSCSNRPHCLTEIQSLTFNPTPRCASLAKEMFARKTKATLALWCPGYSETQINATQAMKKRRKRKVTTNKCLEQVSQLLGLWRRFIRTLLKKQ
In words: cell-based or functional assay.

In test [3] the target is T2, cynomolgus monkey TSLP. The test can be described thus: indirect ELISA, coated cyno TSLP; 95% CI in brackets.
Experimental: (§1) The next day, the plates were washed three times with ELISA wash buffer and blocked with ELISA assay diluent B (BioLegend) for one hour at room temperature (RT). […] Antibody binding was assessed using an 8-point titration curve in triplicates (1:3 serial dilution starting at 10 μg/mL). The plate was washed three times with ELISA wash buffer, and HRP-conjugated anti-human IgG-HRP secondary antibody (Jackson ImmunoResearch Laboratories, Inc.) was added to wells at a 1:5000 dilution in 1×ELISA assay diluent. Secondary antibody was added to detect binding of the primary antibody to the antigen. The plate was incubated for 30 minutes at room temperature with the secondary detection antibody, then the plates were washed three times with ELISA wash buffer and developed with TMB substrate solution (Invitrogen, Waltham, MA). The HRP enzymatic reaction was stopped after about 1 minute with acidic stop solution (Invitrogen), and the absorbance at 450 nm on a Biotek plate reader.
(§2) The EC₅₀ values were calculated using Graphpad Prism 9.2.0 by fitting a four-parameter non-linear regression curve to the average absorbance values of three technical replicates per concentration with three independent experiments. […] N=4 independent experiments with 3 technical replicates. […] N=3 independent experiments with 3 technical replicates.
Test [4] addresses T1, human thymic stromal lymphopoietin …. The test can be described thus: indirect ELISA, coated human TSLP; 95% CI in brackets.
Experimental: as §1, §2
The target in a further test is T3, mouse TSLP (mouse, UniProt Q9JIE6 20-140).
T3 construct: also called mouse TSLP cytokine
T3 sequence (looked up): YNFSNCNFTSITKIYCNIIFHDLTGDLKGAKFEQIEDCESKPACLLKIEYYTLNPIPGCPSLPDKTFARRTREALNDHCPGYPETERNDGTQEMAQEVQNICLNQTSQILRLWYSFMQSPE
In words: direct ELISA: plate coated with 2 µg/mL mouse TSLP, anti-human IgG-HRP, absorbance at 450 nm.

The target of a further test is T4, human IL-7 (human, UniProt P13232 26-177).
T4 construct: also called hIL-7
T4 sequence (looked up): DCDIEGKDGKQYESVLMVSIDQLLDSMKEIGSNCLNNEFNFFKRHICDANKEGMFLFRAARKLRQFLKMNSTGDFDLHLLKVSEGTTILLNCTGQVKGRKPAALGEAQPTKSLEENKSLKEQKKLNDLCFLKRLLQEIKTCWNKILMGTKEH
In words: direct ELISA: plate coated with 2 µg/mL human IL-7, anti-human IgG-HRP, absorbance at 450 nm.

Experimental for mouse TSLP: as §1, §2

B1: AB-2b (antibody, human IgG1, lambda)
heavy: QMQLVESGGGVVQPGRSLRLSCAASGFTFRTYGMHWVRQAPGKGLEWVAVVWYDGSYTHYADSVKGRFTITRDNSKNTLNLQMNSLRAEDTAVYYCARSPQWEEIFEAMDIWGQGTMVTVSSASTKGPSVFPLAPSSKSTSGGTAALGCLVKDYFPEPVTVSWNSGALTSGVHTFPAVLQSSGLYSLSSVVTVPSSSLGTQTYICNVNHKPSNTKVDKRVEPKSCDKTHTCPPCPAPELLGGPSVFLFPPKPKDTLYITREPEVTCVVVDVSHEDPEVKFNWYVDGVEVHNAKTKPREEQYNSTYRVVSVLTVLHQDWLNGKEYKCKVSNKALPAPIEKTISKAKGQPREPQVYTLPPSREEMTKNQVSLTCLVKGFYPSDIAVEWESNGQPENNYKTTPPVLDSDGSFFLYSKLTVDKSRWQQGNVFSCSVMHEALHNHYTQKSLSLSPGK
light: SYVLTQPPSVSVAPGQTARITCGGNNIGSKSVHWYQQKPGQAPVLVVYDDSDRPSWIPERFSGSNSGNTATLTISRGEAGDEADYYCQIWDSSSSLVVFGGGTKLTVLGQPKAAPSVTLFPPSSEELQANKATLVCLISDFYPGAVTVAWKADSSPVKAGVETTTPSKQSNNKYAASSYLSLTPEQWKSHRSYSCQVTHEGSTVEKTVAPTECS
Consider B1, for which the “IC50, human TSLPR/IL-7Rα Ba/F3 STAT5-luciferase assay” value in test [1] was determined as 0.03 µg/mL. Besides, in the test with cynomolgus monkey TSLP [2], the “IC50, cyno TSLPR/IL-7Rα Ba/F3 STAT5-luciferase assay” value came to 0.04 µg/mL. This molecule also showed an EC80 in the test with cynomolgus monkey TSLP [3] of 0.1 µg/mL. In test [4], the EC50 is 0.03 µg/mL, the 80% effect level (EC80) was put at 0.1 µg/mL and the 90% effect level (EC90) was put at 0.18 µg/mL. Besides, the binding result in the test with mouse TSLP was “no binding (tested: about 5 µg/ml)”.

B2: Reference Antibody (antibody, human IgG2, lambda, V domains shown)
VH: QMQLVESGGGVVQPGRSLRLSCAASGFTFRTYGMHWVRQAPGKGLEWVAVIWYDGSNKHYADSVKGRFTITRDNSKNTLNLQMNSLRAEDTAVYYCARAPQWELVHEAFDIWGQGTMVTVSS
VL: SYVLTQPPSVSVAPGQTARITCGGNNLGSKSVHWYQQKPGQAPVLVVYDDSDRPSWIPERFSGSNSGNTATLTISRGEAGDEADYYCQVWDSSSDHVVFGGGTKLTVLG
notes: Comparator anti-TSLP antibody with an IgG2 heavy chain constant domain and lambda light chain
With B2, the binding result in the test with mouse TSLP and with human IL-7 was “no binding (tested: about 5 µg/ml)” throughout.

The values above are taken from patent US20250109193A1 (FLAGSHIP PIONEERING INNOVATIONS VI, published 2025).
